± gives the uncertainty stated by the source.
assay: amyloid nucleation score (Sup35N fusion, yeast selection) (log enrichment); library NNK3; higher = more nucleation; inactive = no reads after selection
Outline: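 Nucleation score: DiMSum log enrichment of output over input reads, centred on the mode score of non-aggregating sequences. Only sequences with at least 100 input reads were kept. Reads came from Illumina sequencing of plasmid inserts before and after 7 days of growth at 30°C without adenine and uracil, in psi-negative yeast expressing Sup35N fused to peptides of 20 random codons after 24 hours of induction with 100 μM copper sulfate.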

Substance	amyloid nucleation score
KLGIGFPWCGRLHIEHSKMR	inactive
WQQAYRDRTSRSYWQPICAT	inactive
VFSIKIYKPKSSFHDRFYSV	inactive
MDLYMTSWEFTVLSLEKMGR	inactive
ICTECAYFSTWRHSMCITWG	inactive
LFRLFVSEARTRLNCRTCNF	-0.285 ± 0.64
CDTFVVNMSQFLSISTMAER	0.66 ± 0.17
IPRVDLLLCLDSIGLGRSLN	inactive
IFVNSTVLFLMHVCCLSVIS	2.12 ± 0.068
CCLPSYSVGCRASGDDSW	inactive
YKGDKFVRCSVW	inactive
GADDVTNRRTVVVSTQALCL	inactive
KFCISSKDKIF	inactive
VSSAYLKCSFLKNLAVSLYG	inactive
VYIRSFRSCTWRSLPMRIRY	inactive
NMCDNMQQIMVSGYVVVWVY	1.19 ± 0.15
WGLTMLRESRVCCKSYNKQG	inactive
VMKNSTIILSFTFLSPKVSF	2.16 ± 0.069
RFQCWVWSQ	inactive
ESMLIS	inactive
EGDYECGNTWQNGGSTSEDP	inactive
PKYALMRFRFYSGLR	inactive
EHYFSTSIVGCGFFIWWCWG	inactive

Substance	amyloid nucleation score
AEWWSTVCH	inactive
DLAFGMSFDWT	inactive
FFVVC	inactive
NFDKFDRRRWVMIIVYMAPA	inactive
YLFTFVWQTTSLINVIVALI	inactive
SCEDLWNNMIAWMFATSRR	1.26 ± 0.1
FFSAPMNEVKTGTILKGFVC	inactive
QRSEV	inactive
YTWYCFCRC	2.44 ± 0.055
HMCCKYVPRNKSGSLVFKRG	inactive
HVIHGCNSIFYSVS	inactive
RRSTQLKRQYKSL	inactive
LEFRYPAMWLKFSLYVWTLI	inactive
RRCNVMLKNDLNCLPSSLFI	0.322 ± 0.62
YYSWCRFTNDYSCCYRAFFA	inactive
TSINFSMAIDLRSHQLERTV	0.479 ± 0.31
NMIIVDFDNLLYNMNYHLAG	1.49 ± 0.11
QWILHNFTVGARPGPVRTKE	inactive
RVLVWTFYEKAKNCAFCRGV	inactive
HLTIVDWSPRESSSWIMRFT	inactive
FYSWCR	inactive
VFDCYHRTGVMETVCWNVFG	inactive
YDLRCCTAVLFDLVESRATL	inactive

Substance	amyloid nucleation score
HLCRFYSSFGDSTSSRLSGN	inactive
QEWVRYYYFVLYFNYVNGSW	inactive
VRRIIML	inactive
SLWRLMSETVGLKKMQ	inactive
WWMYSALGMYTDHEFACDVA	inactive
LDSIPSMSTVLLMSASGCND	inactive
SAGDTDRRPVFH	-0.058 ± 1
SGCCLDSLYLTIRLDCLRWR	inactive
LDHYGLSLAHDVRRGVCCFW	1.13 ± 0.14
SFYGSIQGQNLLTLLNMKTR	inactive
SCTLQNFRGLKNSFYGYYAT	inactive
VPLTRSKYYFRSWRWIDCGG	inactive
RNLRYICRFALGGVARLWCG	0.197 ± 0.55
IREYCFH	inactive
HYCMRN	inactive
YKRGFMKRYANAEASFMSYW	inactive
VLGPDGRVKYVAKDSNIMVI	inactive
CGEYMRCLNVEYRCVGVKGS	inactive
SCILHYSDYATWLGRYVKVI	inactive
VIICIAGGLPMRTH	1.71 ± 0.06
MKCFSVSVLCNLGSFLCEVT	0.146 ± 0.9
LRWSIEGFLVSMMKY	inactive
SDNGEIMILYRLRAVGDFE	inactive

Substance	amyloid nucleation score
GCFYCQALNLHPLTSVHAD	inactive
NVHMMC	inactive
RNLKN	inactive
DRAAMFSNSVQSCICTWMNI	2.17 ± 0.061
HKYLWCIPWETLCKTWPFFS	inactive
RPTTIGINNDW	inactive
VWETKMTLLINSKNYFVGFW	inactive
EYHDALEYVVGDKAIFWSGD	inactive
CNSVRLGFQWAKYVLWRHRG	inactive
IQWMLCAKANLIEYKGVFFI	inactive
SWDHTVNKLGTPTVGSGSND	inactive
PGIIGTSNSFYQCVMWQVFG	2.13 ± 0.063
SGYCYGFVMNDGHSSVRGDE	-0.215 ± 0.74
LRCKKRLVRFLHVHEFAVEY	-0.211 ± 0.52
SGASYVQS	inactive
NLYFGHKSTS	inactive
HRYASVGSTYWGYKVDLLWC	inactive
ILDTEHYLMYKVSPAVASLS	inactive
SLYTARVFGVNYHFVTSKFF	inactive
LNRLSCFSCPLFV	inactive
NLWYAFMSFVVNDGHIRLGR	1.1 ± 0.11
ELNMAVDAVYCTGSVHKIVF	1.36 ± 0.13
TDISLCNLGKHKVLRGL	inactive

Substance	amyloid nucleation score
TNDLYEFVPRAVILTSICLL	inactive
ESSFSGLYYDSAM	inactive
LVRIMYL	inactive
LINFEY	1.16 ± 0.073
RHCGRALCDWLVIRWGSGYT	inactive
IAGLSNNTTDGLLRISHRYL	inactive
KVTMPLQSYTLYSMYICLLS	inactive
ILSLAGSKWCWEKYRMGS	inactive
GRARMFGLGRVFKVCMKLRA	-0.543 ± 0.54
RKVKILWNDTLTFRT	inactive
YMYFKVDVDWRSPGMTARLL	inactive
TLCMVQRSRVVSLLSVGRIL	-0.223 ± 0.55
LYSHSGSFSIGSQFNFVWFT	1.44 ± 0.14
RSFSNSDRMVSNLQFCYYFG	2.77 ± 0.053
PRKTFVKCNRRLNSW	inactive
ELLVVFEESIVINFLDANIW	0.674 ± 0.2
WGWMSTIKIVG	inactive
ARWVWDIKETVTLV	inactive
WSSVFESLQSLMIIFRRLAD	inactive
RAFLL	inactive
CLGNENVELVSTNVVYRYIS	inactive
YCKEGLQQDPIFSKFYEHLG	inactive
FVHKNPHHRFAQMCTKANCR	inactive

Substance	amyloid nucleation score
INDLKGVVLNIWIKYIV	0.602 ± 0.14
ANTFVSSWFVTTNRQKTERG	inactive
AFNVIRYVVWFSMVRASNAS	inactive
CAESIRHRRP	inactive
CFCFARFKFR	2.19 ± 0.071
GIYPSHHWGI	inactive
DSNLRLYALTRCHKALHVMS	inactive
VRSVRGADELDLICHRLSRN	inactive
LWRGLVIWLMLSGLKCGLHL	inactive
VVTNG	0.408 ± 0.17
CSPSFDVYPMV	inactive
VFFFMELEYSYFEY	inactive
FISDRGGLVRMNYPPRHW	inactive
RDPASGVSMCTIIIVKGYTI	0.57 ± 0.2
RSYTDMCP	inactive
GADKFSMLRVYGICRLGSAC	-0.024 ± 0.93
NGVLSSA	inactive
YNGYALRF	inactive
VACITLCNIVQSIQMSIIMK	1.45 ± 0.061
SRKWCQFYSCIIYTTNLLGR	1.85 ± 0.069
PSCFLPFNCPITLVYTCSLF	2.14 ± 0.07
GHFGVLMSGSTGGNLANQSG	inactive
TLFQSFRELLRNGVFCLRTM	inactive

Substance	amyloid nucleation score
VPTMMRVR	inactive
GTRNMKPLTKAETSRLG	0.139 ± 0.45
YAGFCPRGRSPKRG	inactive
NDREWNKRYGINTKQPAAVT	inactive
LRWMFPLPRNVSHCSLA	inactive
STSYYPDVRVATRSSYWHFT	1.14 ± 0.18
SLCDMREWSALVFITHMSMV	inactive
ACLLKSYFSRYNEKPTCYVT	inactive
SHVSQMWSGYAGNKEEPTAW	0.928 ± 0.19
THSGQEEWLVNKDAS	inactive
FSWMC	inactive
KRMLCWFINKVIYLRYLWQV	inactive
DSLILWHGDANCSRLGYRGH	inactive
YMTGNSSSWSTFGWDKRFGI	1.03 ± 0.09
VLSTVFKAKPNHNRAFMG	0.063 ± 0.78
HNNYHYIVRSFVGI	1.01 ± 0.28
SNLVPMQCVIL	inactive
FNQAHSVTTDREAYRGRCQG	inactive
HYEVRGVLFAMPPCGNI	inactive
SYFRRIRWQLEEHLLLLWR	inactive
NVIRISICRSMRMGLKGCIF	0.732 ± 0.19

— the supplement of paper PMC12042874
